In paper PMC10385607 (2023) one finds IC50, Kd and koff data, which are given here for five molecules.

The target of test [1] is T1, Human ALCAM (28–501)-6xhistidine tag (human, UniProt Q13740 28-501).
T1 chain: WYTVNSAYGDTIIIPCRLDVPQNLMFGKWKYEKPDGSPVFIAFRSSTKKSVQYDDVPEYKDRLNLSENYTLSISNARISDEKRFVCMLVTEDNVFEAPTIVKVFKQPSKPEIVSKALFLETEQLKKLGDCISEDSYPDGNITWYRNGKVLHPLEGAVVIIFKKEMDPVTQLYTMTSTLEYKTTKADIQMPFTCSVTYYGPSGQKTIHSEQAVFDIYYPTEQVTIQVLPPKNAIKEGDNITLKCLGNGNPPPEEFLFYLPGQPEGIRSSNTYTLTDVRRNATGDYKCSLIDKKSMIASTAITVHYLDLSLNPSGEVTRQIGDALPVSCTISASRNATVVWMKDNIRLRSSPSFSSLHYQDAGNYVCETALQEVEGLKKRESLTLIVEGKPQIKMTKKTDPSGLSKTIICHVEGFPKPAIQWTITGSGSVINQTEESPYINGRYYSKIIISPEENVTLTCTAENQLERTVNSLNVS
Nature of the test: ELISA; competition with CD6-Fc. Background: ELISA stands for enzyme-linked immunosorbent assay.

Test [2] addresses T1, Human ALCAM (28–501)-6xhistidine tag. Nature of the test: SPR. A general note: Surface plasmon resonance follows binding to a sensor surface in real time, without labels.
Test [3] shares this target. Nature of the test: SPR.

B1: scFv V200G1 (scFv, V domains shown)
VH: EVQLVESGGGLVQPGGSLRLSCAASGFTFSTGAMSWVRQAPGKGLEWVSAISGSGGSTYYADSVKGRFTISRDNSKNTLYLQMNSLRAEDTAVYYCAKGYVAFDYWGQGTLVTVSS
VL: SSVLTQPPSVSVAPGQTARITCQGDSLRSGYASWYQQKPGQAPVLVVYGKTGRPSGIPERFSGSSSGNTATLTISRVEAGDEADYYCNSSPPFSAEVVFGGGTKLTVL
By IC50 is commonly meant the concentration that gives 50% inhibition. A word on the Kd: it is the free concentration of one partner at which half of the binding sites on the other are occupied at equilibrium, for simple one-to-one binding. Read a low Kd as a tighter complex. Regarding B1, the IC50 in test [1] came to 31.3 nM. This molecule showed an equilibrium dissociation constant (Kd) in test [2] of 2.52 nM.

B2: scFv OPT (scFv, V domains shown)
VH: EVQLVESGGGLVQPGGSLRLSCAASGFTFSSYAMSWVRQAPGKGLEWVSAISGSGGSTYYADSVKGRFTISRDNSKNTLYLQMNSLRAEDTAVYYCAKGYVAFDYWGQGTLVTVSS
VL: SSVLTQPPSVSVAPGQTARITCQGDSLRSYYASWYQQKPGQAPVLVVYGKNNRPSGIPERFSGSSSGNTATLTISRVEAGDEADYYCNSSPPFSAEVVFGGGTKLTVL
The koff is the first-order rate constant of dissociation. Low readings indicate a long-lived complex, high ones a short-lived complex. In the case of B2, the dissociation rate constant (koff) in test [3] turned out to be 0.0011 s⁻¹. In test [1], this molecule had a half-maximal inhibitory concentration (IC50) of 69.2 nM. Also, the Kd in test [2] was found to be 12.7 nM.

B3: scFv V2D7 (scFv, V domains shown)
VH: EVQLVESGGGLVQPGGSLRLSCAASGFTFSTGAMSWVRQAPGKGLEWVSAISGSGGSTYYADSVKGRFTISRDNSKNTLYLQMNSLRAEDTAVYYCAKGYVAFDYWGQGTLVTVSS
VL: SSVLTQPPSVSVAPGQTARITCQGDSLRSGYASWYQQKPGQAPVLVVYGKNNRPSGIPERFSGSSSGNTATLTISRVEAGDEADYYCNSSPPFSAEVVFGGGTKLTVL
Regarding B3, the off-rate constant (koff) in test [3] amounted to 0.000127 s⁻¹. Besides, in test [2], binding was characterised by a dissociation constant (Kd) of 2.62 nM.

B4: scFv V20C10NC (scFv, V domains shown)
VH: EVQLVESGGGLVQPGGSLRLSCAASGFTFSTGAMSWVRQAPGKGLEWVSAISGTGGTTYYADSVKGRFTISRDNSKNTLYLQMNSLRAEDTAVYYCAKGYVAFDYWGQGTLVTVSS
VL: SSVLTQPPSVSVAPGQTARITCQGDSLRSGYASWYQQKPGQAPVLVVYPKMSRPSGIPERFSGSSSGNTATLTISRVEAGDEADYYCNSSPPFSAEVVFGGGTKLTVL
B4 had a koff in test [3] of 9.12e-05 s⁻¹. In test [1], this molecule returned a half-inhibitory concentration (IC50) of 29.2 nM. Moreover, binding in test [2] was put at a Kd of 5.08 nM.

B5: scFv IF8 (scFv, V domains shown)
VH: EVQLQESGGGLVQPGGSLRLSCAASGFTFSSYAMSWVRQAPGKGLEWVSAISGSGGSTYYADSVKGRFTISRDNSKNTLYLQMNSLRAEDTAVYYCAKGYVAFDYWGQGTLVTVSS
VL: SSELTQDPAVSVALGQTVRITCQGDSLRSYYASWYQQKPGQAPVLVIYGKNNRPSGIPDRFSGSSSGNTASLTITGAQAEDEADYYCNSSPPFSAEVVFGGGTKLTVL
The molecule B5 yielded an off-rate (koff) in test [3] of 0.00114 s⁻¹.
